B1: p53_R248Q_A2_c10 (scFv)
scFv: DIQMTQSPSSLSASVGDRVTITCRASQDVNTAVAWYQQKPGKAPKLLIYSASFLYSGVPSRFSGSRSGTDFTLTISSLQPEDFATYYCQQSGYAPITFGQGTKVEIKRTGGGSGGGGSGGGASEVQLVESGGGLVQPGGSLRLSCAASGFNISYYSMHWVRQAPGKGLEWVADVDPDSDYTEYADSVKGRFTISADTSKNTAYLQMNSLRAEDTAVYYCSRSWIHMFSMDYWGQGTLVTVSS
B2: KRAS_G12D_A11_c17 (scFv)
scFv: DIQMTQSPSSLSASVGDRVTITCRASQDVNTAVAWYQQKPGKAPKLLIYSAYFLYSGVPSRFSGSRSGTDFTLTISSLQPEDFATYYCQQYSAYYQPITFGQGTKVEIKRTGGGSGGGGSGGGASEVQLVESGGGLVQPGGSLRLSCAASGFNIFSDQMHWVRQAPGKGLEWVAGFMPYDSYYTNYADSVKGRFTISADTSKNTAYLQMNSLRAEDTAVYYCSRMSVRNAFDYWGQGTLVTVSS
B3: KRAS_G12D_A11_c117 (scFv)
scFv: DIQMTQSPSSLSASVGDRVTITCRASQDVNTAVAWYQQKPGKAPKLLIYSASFLYSGVPSRFSGSRSGTDFTLTISSLQPEDFATYYCQQYDYRPVTFGQGTKVEIKRTGGGSGGGGSGGGASEVQLVESGGGLVQPGGSLRLSCAASGFNVSTSGMHWVRQAPGKGLEWVAFIYGAYSGTYYADSVKGRFTISADTSKNTAYLQMNSLRAEDTAVYYCSRSQSYTYWSAMDYWGQGTLVTVSS
B4: KRAS_G12D_A11_c112 (scFv)
scFv: DIQMTQSPSSLSASVGDRVTITCRASQDVNTAVAWYQQKPGKAPKLLIYSASFLYSGVPSRFSGSRSGTDFTLTISSLQPEDFATYYCQQYSYMPITFGQGTKVEIKRTGGGSGGGGSGGGASEVQLVESGGGLVQPGGSLRLSCAASGFNISYQHIHWVRQAPGKGLEWVAVFMPYQGSTYYADSVKGRFTISADTSKNTAYLQMNSLRAEDTAVYYCSRANIYSSHSFFDYWGQGTLVTVSS
B5: KRAS_G12D_A11_c115 (scFv)
scFv: DIQMTQSPSSLSASVGDRVTITCRASQDVNTAVAWYQQKPGKAPKLLIYSASFLYSGVPSRFSGSRSGTDFTLTISSLQPEDFATYYCQQYSYMPITFGQGTKVEIKRTGGGSGGGGSGGGASEVQLVESGGGLVQPGGSLRLSCAASGFNVSGQYMHWVRQAPGKGLEWVAVISPVSGNTYYADSVKGRFTISADTSKNTAYLQMNSLRAEDTAVYYCSRPMKTSYYGAFDYWGQGTLVTVSS
B6: KRAS_G12D_A11_c14 (scFv)
scFv: DIQMTQSPSSLSASVGDRVTITCRASQDVNTAVAWYQQKPGKAPKLLIYSASFLYSGVPSRFSGSRSGTDFTLTISSLQPEDFATYYCQQYSFYPFTFGQGTKVEIKRTGGGSGGGGSGGGASEVQLVESGGGLVQPGGSLRLSCAASGFNFGSYIHWVRQAPGKGLEWVAIISGYSGNTYYADSVKGRFTISADTSKNTAYLQMNSLRAEDTAVYYCSRSNQSAYSYMDYWGQGTLVTVSS
B7: KRAS_G12D_A11_c118 (scFv)
scFv: DIQMTQSPSSLSASVGDRVTITCRASQDVNTAVAWYQQKPGKAPKLLIYSASFLYSGVPSRFSGSRSGTDFTLTISSLQPEDFATYYCQQYDFTPMTFGQGTKVEIKRTGGGSGGGGSGGGASEVQLVESGGGLVQPGGSLRLSCAASGFNISYAKMHWVRQAPGKGLEWVAYLTYWGGYTNYADSVKGRFTISADTSKNTAYLQMNSLRAEDTAVYYCSRGEYGTYMDYWGQGTLVTVSS
B8: KRAS_G12D_A11_c16 (scFv)
scFv: DIQMTQSPSSLSASVGDRVTITCRASQDVNTAVAWYQQKPGKAPKLLIYSASFLYSGVPSRFSGSRSGTDFTLTISSLQPEDFATYYCQQYSYSPITFGQGTKVEIKRTGGGSGGGGSGGGASEVQLVESGGGLVQPGGSLRLSCAASGFNISDSYMHWVRQAPGKGLEWVATFSPYSSNTWYADSVKGRFTISADTSKNTAYLQMNSLRAEDTAVYYCSRSQFTFYQYFDYWGQGTLVTVSS
B9: KRAS_G12D_A11_c19 (scFv)
scFv: DIQMTQSPSSLSASVGDRVTITCRASQDVNTAVAWYQQKPGKAPKLLIYSASFLYSGVPSRFSGSRSGTDFTLTISSLQPEDFATYYCQQYSYYPITFGQGTKVEIKRTGGGSGGGGSGGGASEVQLVESGGGLVQPGGSLRLSCAASGFNLSYSYMHWVRQAPGKGLEWVAVISGFSGNTYYADSVKGRFTISADTSKNTAYLQMNSLRAEDTAVYYCSRSDSYYTAMDYWGQGTLVTVSS
B10: KRAS_G12D_A11_c114 (scFv)
scFv: DIQMTQSPSSLSASVGDRVTITCRASQDVNTAVAWYQQKPGKAPKLLIYSASFLYSGVPSRFSGSRSGTDFTLTISSLQPEDFATYYCQQYAYYPVTFGQGTKVEIKRTGGGSGGGGSGGGASEVQLVESGGGLVQPGGSLRLSCAASGFNLSGYYMHWVRQAPGKGLEWVAWFSPYSGYTYYADSVKGRFTISADTSKNTAYLQMNSLRAEDTAVYYCSRTHSSIYHSFDYWGQGTLVTVSS
B11: KRAS_G12D_A11_c110 (scFv)
scFv: DIQMTQSPSSLSASVGDRVTITCRASQDVNTAVAWYQQKPGKAPKLLIYSASFLYSGVPSRFSGSRSGTDFTLTISSLQPEDFATYYCQQYEYVPHTFGQGTKVEIKRTGGGSGGGGSGGGASEVQLVESGGGLVQPGGSLRLSCAASGFNISYGYMHWVRQAPGKGLEWVAKFHYGSGNTYYADSVKGRFTISADTSKNTAYLQMNSLRAEDTAVYYCSRSNYYYLDYWGQGTLVTVSS
B12: KRAS_G12D_A11_c119 (scFv)
scFv: DIQMTQSPSSLSASVGDRVTITCRASQDVNTAVAWYQQKPGKAPKLLIYSASFLYSGVPSRFSGSRSGTDFTLTISSLQPEDFATYYCQQYSSSSPVTFGQGTKVEIKRTGGGSGGGGSGGGASEVQLVESGGGLVQPGGSLRLSCAASGFNFSSYVMHWVRQAPGKGLEWVAVVYPDSGGTYYADSVKGRFTISADTSKNTAYLQMNSLRAEDTAVYYCSRTSSYYAFDYWGQGTLVTVSS
B13: H/R/N RAS Q61R_A1_c117 (scFv)
scFv: DIQMTQSPSSLSASVGDRVTITCRASQDVNTAVAWYQQKPGKAPKLLIYSASFLYSGVPSRFSGSRSGTDFTLTISSLQPEDFATYYCQQSVYDPITFGQGTKVEIKRTGGGSGGGGSGGGASEVQLVESGGGLVQPGGSLRLSCAASGFNISGSWIHWVRQAPGKGLEWVAWLYPDSDYTYYADSVKGRFTISADTSKNTAYLQMNSLRAEDTAVYYCSRAHTYAFDYWGQGTLVTVSS
B14: H/K/N RAS Q61K_A1_c16 (scFv)
scFv: DIQMTQSPSSLSASVGDRVTITCRASQDVNTAVAWYQQKPGKAPKLLIYSASFLYSGVPSRFSGSRSGTDFTLTISSLQPEDFATYYCQQHYYSPVTFGQGTKVEIKRTGGGSGGGGSGGGASEVQLVESGGGLVQPGGSLRLSCAASGFNIFYQDMHWVRQAPGKGLEWVAMIYPDYDYTYYADSVKGRFTISADTSKNTAYLQMNSLRAEDTAVYYCSRTYSVYMDYWGQGTLVTVSS
B15: H/R/N RAS Q61R_A1_c116 (scFv)
scFv: DIQMTQSPSSLSASVGDRVTITCRASQDVNTAVAWYQQKPGKAPKLLIYSASFLYSGVPSRFSGSRSGTDFTLTISSLQPEDFATYYCQQAHMIPITFGQGTKVEIKRTGGGSGGGGSGGGASEVQLVESGGGLVQPGGSLRLSCAASGFNFSFPGMHWVRQAPGKGLEWVAWFVGYDGYTYYADSVKGRFTISADTSKNTAYLQMNSLRAEDTAVYYCSRDYYSFSMDYWGQGTLVTVSS
B16: H/K/N RAS Q61H_A1_c10 (scFv)
scFv: DIQMTQSPSSLSASVGDRVTITCRASQDVNTAVAWYQQKPGKAPKLLIYSASFLYSGVPSRFSGSRSGTDFTLTISSLQPEDFATYYCQQGYFYYPNTFGQGTKVEIKRTGGGSGGGGSGGGASEVQLVESGGGLVQPGGSLRLSCAASGFNIGYYGMHWVRQAPGKGLEWVATVYPGGGYTSYADSVKGRFTISADTSKNTAYLQMNSLRAEDTAVYYCSRYYYYGFDYWGQGTLVTVSS
B17: H/R/N RAS Q61R_A1_c119 (scFv)
scFv: DIQMTQSPSSLSASVGDRVTITCRASQDVNTAVAWYQQKPGKAPKLLIYSASFLYSGVPSRFSGSRSGTDFTLTISSLQPEDFATYYCQQGQYSPFTFGQGTKVEIKRTGGGSGGGGSGGGASEVQLVESGGGLVQPGGSLRLSCAASGFNVSYEYMHWVRQAPGKGLEWVAEIYGGSDNTYYADSVKGRFTISADTSKNTAYLQMNSLRAEDTAVYYCSRPLGSYFDYWGQGTLVTVSS
B18: H/K/N RAS Q61K_A1_c18 (scFv)
scFv: DIQMTQSPSSLSASVGDRVTITCRASQDVNTAVAWYQQKPGKAPKLLIYSASFLYSGVPSRFSGSRSGTDFTLTISSLQPEDFATYYCQQYAYAPFTFGQGTKVEIKRTGGGSGGGGSGGGASEVQLVESGGGLVQPGGSLRLSCAASGFNVSYSMIHWVRQAPGKGLEWVARVWGDGGVTYYADSVKGRFTISADTSKNTAYLQMNSLRAEDTAVYYCSRGSYYAFDYWGQGTLVTVSS
B19: H/R/N RAS Q61R_A1_c122 (scFv)
scFv: DIQMTQSPSSLSASVGDRVTITCRASQDVNTAVAWYQQKPGKAPKLLIYSASFLYSGVPSRFSGSRSGTDFTLTISSLQPEDFATYYCQQYWYLPTTFGQGTKVEIKRTGGGSGGGGSGGGASEVQLVESGGGLVQPGGSLRLSCAASGFNISWYDIHWVRQAPGKGLEWVADIEPSVGYTYYADSVKGRFTISADTSKNTAYLQMNSLRAEDTAVYYCSRSYPYYYFDYWGQGTLVTVSS
B20: H/R/N RAS Q61R_A1_c118 (scFv)
scFv: DIQMTQSPSSLSASVGDRVTITCRASQDVNTAVAWYQQKPGKAPKLLIYSASFLYSGVPSRFSGSRSGTDFTLTISSLQPEDFATYYCQQSYTSPLTFGQGTKVEIKRTGGGSGGGGSGGGASEVQLVESGGGLVQPGGSLRLSCAASGFNIYYGVMHWVRQAPGKGLEWVAMIYPDSSWTYYADSVKGRFTISADTSKNTAYLQMNSLRAEDTAVYYCSRDQDFHYMNYYLSYALDYWGQGTLVTVSS

These binders were tested against p53 wt(245-254) peptide … with HLA-A2 and b2M on peptide-pulsed T2 cells (human) (assay: flow cytometry, phage-displayed scFv on peptide-pulsed T2 cells (FIG. 4)).
Method: (§1) Cells were stained with 10 μL of precipitated phage per 100 μL of cells, washed and stained with rabbit anti-M13 antibody, then washed and stained with anti-Rabbit-PE antibody. Cells were stained with a live/dead Near-IR dye, washed, and analyzed by an LSRII flow cytometer.
(§2) The pulsed cells were pelleted, washed once in cold stain buffer (PBS containing 0.5% BSA, 2 mM EDTA, and 0.1% sodium azide), and resuspended in 100 μL of stain buffer. Phage staining was performed on ice with 10 uL (approximately 1×10⁹) phage for 1 hour in 100 uL total volume, followed by one 4 mL wash in cold stain buffer. Cells were then stained with 1 uL of rabbit anti-M13 antibody (Pierce, Rockford, Ill.) in 100 uL total volume on ice for 1 hour and washed once with 4 mL of cold stain buffer. Cells were stained with anti-rabbit-PE (Biolegend) on ice for 1 hour in 100 uL total volume, followed by incubation with LIVE/DEAD Fixable Near-IR Dead Cell Stain (Thermo Fisher) for 10 min at room temperature per manufacturer's instructions. Cells were washed once in 4 mL of stain buffer followed by resuspension in 300 uL of stain buffer before analysis. Stained cells were analyzed using an LSRII flow cytometer (Becton Dickinson, Mansfield, Mass.).

Binding result, no binding:
B1

Each binder was assayed against KRAS wt(8-16) peptide … with HLA-A11 and b2M on peptide-pulsed MINO cells (human) (assay: flow cytometry, phage-displayed scFv on peptide-pulsed MINO cells (FIG. 10)).
Method: as §1, §2

Binding result, no binding:
B2
B3
B4
B5
B6
B7
B8
B9
B10
B11
B12

What follows are binders tested against H/K/N RAS wt(55-64) peptide … with HLA-A1 and b2M on peptide-pulsed SigM5 cells (human) (assay: flow cytometry, phage-displayed scFv on peptide-pulsed SigM5 cells (FIG. 14)).
Method: as §1, §2

Binding result, no binding:
B13
B14
B15
B16
B17
B18
B19
B20

Source: patent US20200079854A1 (Johns Hopkins, published 2020)
